In publication PMC11066007, “CORVET-specific subunit levels determine the balance between HOPS/CORVET endosomal tethering complexes” (Scientific Reports, 2024):

T1: VPS8-FLAG (human, UniProt Q8N3P4 1-1428)
T1 construct: VPS8, human, CORVET-specific subunit; DNA region encoding the full-length protein fused with a FLAG tag; also called CORVET-specific VPS8; source: HEK293, stably transfected (pCMV3), in lysate; not shown: FLAG, C-terminal, kept
T1 sequence (looked up): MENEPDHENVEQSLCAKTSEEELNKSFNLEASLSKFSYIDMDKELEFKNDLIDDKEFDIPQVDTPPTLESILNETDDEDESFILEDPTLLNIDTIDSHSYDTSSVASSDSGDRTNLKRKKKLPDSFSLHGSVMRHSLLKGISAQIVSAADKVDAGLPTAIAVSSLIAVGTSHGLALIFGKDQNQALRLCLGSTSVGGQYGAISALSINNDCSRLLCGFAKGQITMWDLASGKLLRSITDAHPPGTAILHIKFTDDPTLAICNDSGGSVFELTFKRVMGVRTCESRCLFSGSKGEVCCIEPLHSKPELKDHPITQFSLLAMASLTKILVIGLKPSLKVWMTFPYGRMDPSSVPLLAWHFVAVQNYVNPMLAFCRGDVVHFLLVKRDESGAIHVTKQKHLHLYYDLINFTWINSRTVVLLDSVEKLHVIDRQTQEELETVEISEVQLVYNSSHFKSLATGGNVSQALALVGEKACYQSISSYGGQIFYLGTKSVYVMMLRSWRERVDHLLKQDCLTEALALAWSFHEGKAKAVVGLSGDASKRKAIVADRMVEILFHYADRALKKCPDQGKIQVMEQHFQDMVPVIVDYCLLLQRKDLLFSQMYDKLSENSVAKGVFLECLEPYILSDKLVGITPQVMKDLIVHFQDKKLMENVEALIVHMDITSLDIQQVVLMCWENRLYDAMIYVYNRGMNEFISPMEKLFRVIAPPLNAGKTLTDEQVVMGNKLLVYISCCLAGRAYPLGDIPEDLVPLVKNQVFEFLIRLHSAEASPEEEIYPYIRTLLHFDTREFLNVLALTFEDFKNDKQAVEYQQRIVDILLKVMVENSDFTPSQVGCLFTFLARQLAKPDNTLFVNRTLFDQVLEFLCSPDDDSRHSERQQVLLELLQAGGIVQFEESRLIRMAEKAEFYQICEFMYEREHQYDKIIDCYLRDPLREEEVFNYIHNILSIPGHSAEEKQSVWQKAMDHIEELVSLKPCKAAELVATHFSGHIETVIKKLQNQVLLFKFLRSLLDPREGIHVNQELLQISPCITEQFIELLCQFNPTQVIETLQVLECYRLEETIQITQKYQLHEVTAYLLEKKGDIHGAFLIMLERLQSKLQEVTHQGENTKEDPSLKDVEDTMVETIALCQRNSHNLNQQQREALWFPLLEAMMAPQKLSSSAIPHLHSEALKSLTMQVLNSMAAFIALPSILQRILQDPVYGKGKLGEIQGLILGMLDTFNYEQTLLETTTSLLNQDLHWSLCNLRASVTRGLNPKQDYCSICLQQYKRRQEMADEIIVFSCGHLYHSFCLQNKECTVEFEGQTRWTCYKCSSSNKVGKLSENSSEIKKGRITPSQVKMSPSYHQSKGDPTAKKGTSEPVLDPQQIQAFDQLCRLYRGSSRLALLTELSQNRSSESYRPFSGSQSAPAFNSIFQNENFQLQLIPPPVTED

T2: VPS41-FLAG (human, UniProt P49754 1-854)
T2 construct: VPS41, human, HOPS-specific subunit; DNA region encoding the full-length protein fused with a FLAG tag; The label puts FLAG after the name, but the methods say N-terminal tags were used for VPS41 and VPS39; also called HOPS-specific VPS41; source: HEK293, stably transfected (pCMV3), in lysate; not shown: FLAG, N-terminal, kept
T2 sequence (looked up): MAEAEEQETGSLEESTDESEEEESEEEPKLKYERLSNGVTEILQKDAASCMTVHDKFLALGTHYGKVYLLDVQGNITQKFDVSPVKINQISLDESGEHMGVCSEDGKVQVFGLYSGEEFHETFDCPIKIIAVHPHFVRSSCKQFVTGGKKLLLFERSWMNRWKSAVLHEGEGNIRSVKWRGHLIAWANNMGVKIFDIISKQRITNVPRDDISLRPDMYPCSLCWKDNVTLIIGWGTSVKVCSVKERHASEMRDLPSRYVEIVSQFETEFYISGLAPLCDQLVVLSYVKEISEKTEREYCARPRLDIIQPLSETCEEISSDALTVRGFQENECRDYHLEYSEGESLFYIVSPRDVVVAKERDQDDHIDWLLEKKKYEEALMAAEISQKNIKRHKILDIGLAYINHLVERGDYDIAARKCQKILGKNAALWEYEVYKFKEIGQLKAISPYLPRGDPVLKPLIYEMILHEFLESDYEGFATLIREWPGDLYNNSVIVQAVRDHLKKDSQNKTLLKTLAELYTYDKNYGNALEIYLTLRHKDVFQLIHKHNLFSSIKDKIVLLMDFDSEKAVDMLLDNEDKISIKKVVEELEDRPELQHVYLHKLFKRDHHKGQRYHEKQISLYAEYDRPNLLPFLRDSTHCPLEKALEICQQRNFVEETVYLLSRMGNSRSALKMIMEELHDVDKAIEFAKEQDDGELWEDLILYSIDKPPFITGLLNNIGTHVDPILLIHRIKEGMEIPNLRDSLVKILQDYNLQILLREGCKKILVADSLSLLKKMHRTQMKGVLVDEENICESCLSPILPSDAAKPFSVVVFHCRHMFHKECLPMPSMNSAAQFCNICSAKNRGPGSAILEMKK

B1: VPS18 (natural protein, human (endogenous in HEK293), UniProt Q9P253 1-973, looked up)
chain: MASILDEYENSLSRSAVLQPGCPSVGIPHSGYVNAQLEKEVPIFTKQRIDFTPSERITSLVVSSNQLCMSLGKDTLLRIDLGKANEPNHVELGRKDDAKVHKMFLDHTGSHLLIALSSTEVLYVNRNGQKVRPLARWKGQLVESVGWNKALGTESSTGPILVGTAQGHIFEAELSASEGGLFGPAPDLYFRPLYVLNEEGGPAPVCSLEAERGPDGRSFVIATTRQRLFQFIGRAAEGAEAQGFSGLFAAYTDHPPPFREFPSNLGYSELAFYTPKLRSAPRAFAWMMGDGVLYGALDCGRPDSLLSEERVWEYPEGVGPGASPPLAIVLTQFHFLLLLADRVEAVCTLTGQVVLRDHFLEKFGPLKHMVKDSSTGQLWAYTERAVFRYHVQREARDVWRTYLDMNRFDLAKEYCRERPDCLDTVLAREADFCFRQRRYLESARCYALTQSYFEEIALKFLEARQEEALAEFLQRKLASLKPAERTQATLLTTWLTELYLSRLGALQGDPEALTLYRETKECFRTFLSSPRHKEWLFASRASIHELLASHGDTEHMVYFAVIMQDYERVVAYHCQHEAYEEALAVLARHRDPQLFYKFSPILIRHIPRQLVDAWIEMGSRLDARQLIPALVNYSQGGEVQQVSQAIRYMEFCVNVLGETEQAIHNYLLSLYARGRPDSLLAYLEQAGASPHRVHYDLKYALRLCAEHGHHRACVHVYKVLELYEEAVDLALQVDVDLAKQCADLPEEDEELRKKLWLKIARHVVQEEEDVQTAMACLASCPLLKIEDVLPFFPDFVTIDHFKEAICSSLKAYNHHIQELQREMEEATASAQRIRRDLQELRGRYGTVEPQDKCATCDFPLLNRPFYLFLCGHMFHADCLLQAVRPGLPAYKQARLEELQRKLGAAPPPAKGSARAKEAEGGAATAGPSREQLKADLDELVAAECVYCGELMIRSIDRPFIDPQRYEEEQLSWL
notes: VPS18, shared class C core subunit of HOPS and CORVET, detected by anti-VPS18 western blot in anti-FLAG precipitates; also called core subunit VPS18; source: endogenous, HEK293 lysate
B2: VPS11 (natural protein, human (endogenous in HEK293), UniProt Q9H270 1-941, looked up)
chain: MAAYLQWRRFVFFDKELVKEPLSNDGAAPGATPASGSAASKFLCLPPGITVCDSGRGSLVFGDMEGQIWFLPRSLQLTGFQAYKLRVTHLYQLKQHNILASVGEDEEGINPLVKIWNLEKRDGGNPLCTRIFPAIPGTEPTVVSCLTVHENLNFMAIGFTDGSVTLNKGDITRDRHSKTQILHKGNYPVTGLAFRQAGKTTHLFVVTTENVQSYIVSGKDYPRVELDTHGCGLRCSALSDPSQDLQFIVAGDECVYLYQPDERGPCFAFEGHKLIAHWFRGYLIIVSRDRKVSPKSEFTSRDSQSSDKQILNIYDLCNKFIAYSTVFEDVVDVLAEWGSLYVLTRDGRVHALQEKDTQTKLEMLFKKNLFEMAINLAKSQHLDSDGLAQIFMQYGDHLYSKGNHDGAVQQYIRTIGKLEPSYVIRKFLDAQRIHNLTAYLQTLHRQSLANADHTTLLLNCYTKLKDSSKLEEFIKKKSESEVHFDVETAIKVLRQAGYYSHALYLAENHAHHEWYLKIQLEDIKNYQEALRYIGKLPFEQAESNMKRYGKILMHHIPEQTTQLLKGLCTDYRPSLEGRSDREAPGCRANSEEFIPIFANNPRELKAFLEHMSEVQPDSPQGIYDTLLELRLQNWAHEKDPQVKEKLHAEAISLLKSGRFCDVFDKALVLCQMHDFQDGVLYLYEQGKLFQQIMHYHMQHEQYRQVISVCERHGEQDPSLWEQALSYFARKEEDCKEYVAAVLKHIENKNLMPPLLVVQTLAHNSTATLSVIRDYLVQKLQKQSQQIAQDELRVRRYREETTRIRQEIQELKASPKIFQKTKCSICNSALELPSVHFLCGHSFHQHCFESYSESDADCPTCLPENRKVMDMIRAQEQKRDLHDQFQHQLKCSNDSFSVIADYFGRGVFNKLTLLTDPPTARLTSSLEAGLQRDLLMHSRRGT
notes: VPS11, shared class C core subunit of HOPS and CORVET, detected by anti-VPS11 western blot in anti-FLAG precipitates; also called core subunit VPS11; source: endogenous, HEK293 lysate

How the values were obtained:
[1] = molecular target: T1, VPS8-FLAG; experiment: co-IP; anti-FLAG beads on total lysates of HEK293 cells stably transfected with a FLAG-tagged specific subunit, with or without transient overexpression of the counterpart subunit (control: pCMV); endogenous VPS11 and VPS18 detected by western blot, densitometry with ImageJ; lysis buffer 50 mM TRIS-HCl pH 7.5, 150 mM NaCl, 1% Triton X-100, 5 mM EDTA; 1.5 h at 4 °C; conditions: partners not purified
[2] = molecular target: T2, VPS41-FLAG; experiment: as above; conditions: partners not purified

Row | Binder | relative amount bound with Vps41-HA overexpressed (control cells HEK + pCMV as reference) [1] | relative amount bound with VPS8 overexpressed (control cells HEK + pCMV as reference) [2]
1 | B1 | 1.21 relative to control cells | 0.69 relative to control cells
2 | B2 | 1.52 relative to control cells | 0.31 relative to control cells
